The target of this experiment is CBLB (UniProt Q3TTA7). Nature of the experiment: anti-CBLB IP, dectin-1 blot. The following applies: reference: wild-type Flag-dectin-1; sites Y15.

As for “dectin-1 (from UniProt Q6QLQ4) Flag-dectin-1 Y15F”, the “binding against the reference” value was “lost”.

For the origin of these results see article PMC4975523.
